# Measurements taken from the MegaScale stability set (Tsuboyama et al. 2023).
# B1: 5KPH (parent)
# chain: EEKRQVKQVAKEKLLEQSPNSKVQVRRVQKQGNTIRVELELRTNGKKENYTVEVERQGNTWTVKRITRT
# Variants of: B1
# Experiment: folding stability dG (cDNA display proteolysis); higher = more stable
# Details: PBS, room temperature
row,Variant,folding stability dG
1,EEKRQVKQVAKEKLLEQSPNSKVQVRRVQKQGNTIRVELELRTNGKKENYTVEVEQQGNTWTVKRITRT [R56Q],3.51 kcal/mol
2,EEKRQVKQVAKEKLLEQSPNSKVQVRRVQKQGNTIRVELELRTNGKKENYTVEVEDQGNTWTVKRITRT [R56D],2.42 kcal/mol
3,EEKRQVKQVAKEKLLEQSPNSKVQVRRVQKQGNTIRVELELRTNGKKENYTVEVEWQGNTWTVKRITRT [R56W],4.17 kcal/mol
4,EEKRQVKQVAKEKLLEQSPNSKVQVRRVQKQGNTIRVELELRTNGKKENYTVEVEMQGNTWTVKRITRT [R56M],3.61 kcal/mol
5,EEKRQVKQVAKEKLLEQSPNSKVQVRRVQKQGNTIRVELELRTNGKKENYTVEVEPQGNTWTVKRITRT [R56P],2.93 kcal/mol
6,EEKRQVKQVAKEKLLEQSPNSKVQVRRVQKQGNTIRVELELRTNGKKENYTVEVEEQGNTWTVKRITRT [R56E],2.88 kcal/mol
7,EEKRQVKQVAKEKLLEQSPNSKVQVRRVQKQGNTIRVELELRTNGKKENYTVEVEFQGNTWTVKRITRT [R56F],3.83 kcal/mol
8,EEKRQVKQVAKEKLLEQSPNSKVQVRRVQKQGNTIRVELELRTNGKKENYTVEVEGQGNTWTVKRITRT [R56G],3.19 kcal/mol
9,EEKRQVKQVAKEKLLEQSPNSKVQVRRVQKQGNTIRVELELRTNGKKENYTVEVEYQGNTWTVKRITRT [R56Y],3.72 kcal/mol
10,EEKRQVKQVAKEKLLEQSPNSKVQVRRVQKQGNTIRVELELRTNGKKENYTVEVEKQGNTWTVKRITRT [R56K],4.11 kcal/mol
11,EEKRQVKQVAKEKLLEQSPNSKVQVRRVQKQGNTIRVELELRTNGKKENYTVEVEIQGNTWTVKRITRT [R56I],3.29 kcal/mol
12,EEKRQVKQVAKEKLLEQSPNSKVQVRRVQKQGNTIRVELELRTNGKKENYTVEVESQGNTWTVKRITRT [R56S],3.26 kcal/mol
13,EEKRQVKQVAKEKLLEQSPNSKVQVRRVQKQGNTIRVELELRTNGKKENYTVEVETQGNTWTVKRITRT [R56T],2.83 kcal/mol
14,EEKRQVKQVAKEKLLEQSPNSKVQVRRVQKQGNTIRVELELRTNGKKENYTVEVECQGNTWTVKRITRT [R56C],3.59 kcal/mol
15,EEKRQVKQVAKEKLLEQSPNSKVQVRRVQKQGNTIRVELELRTNGKKENYTVEVEVQGNTWTVKRITRT [R56V],3.24 kcal/mol
16,EEKRQVKQVAKEKLLEQSPNSKVQVRRVQKQGNTIRVELELRTNGKKENYTVEVELQGNTWTVKRITRT [R56L],3.84 kcal/mol
17,EEKRQVKQVAKEKLLEQSPNSKVQVRRVQKQGNTIRVELELRTNGKKENYTVEVEHQGNTWTVKRITRT [R56H],3.38 kcal/mol
18,EEKRQVKQVAKEKLLEQSPNSKVQVRRVQKQGNTIRVELELRTNGKKENYTVEVENQGNTWTVKRITRT [R56N],2.97 kcal/mol
19,EEKRQVKQVAKEKLLEQSPNSKVQVRRVQKQGNTIRVELELRTNGKKENYTVEVEAQGNTWTVKRITRT [R56A],3.25 kcal/mol
20,EEKRQVKQVAKEKLLEQSPNSKVQVRRVQKQGNTIRVELELRTNGKKENYTYEVERQGNTWTVKRITRT [V52Y],1.78 kcal/mol
21,EEKRQVKQVAKEKLLEQSPNSKVQVRRVQKQGNTIRVELELRTNGKKENYTVTVERQGNTWTVKRITRT [E53T],3.62 kcal/mol
22,EEKRQVKQVAKEKLLEQSPNSKVQVRRVQKQGNTIRVELELRTNGKKENYTVIVERQGNTWTVKRITRT [E53I],4.15 kcal/mol
23,EEKRQVKQVAKEKLLEQSPNSKVQVRRVQKQGNTIRVELELRTNGKKENYTVVVERQGNTWTVKRITRT [E53V],3.94 kcal/mol
24,EEKRQVKQVAKEKLLEQSPNSKVQVRRVQKQGNTIRVELELRTNGKKENYTVKVERQGNTWTVKRITRT [E53K],2.54 kcal/mol
25,EEKRQVKQVAKEKLLEQSPNSKVQVRRVQKQGNTIRVELELRTNGKKENYTVFVERQGNTWTVKRITRT [E53F],4.03 kcal/mol
26,EEKRQVKQVAKEKLLEQSPNSKVQVRRVQKQGNTIRVELELRTNGKKENYTVLVERQGNTWTVKRITRT [E53L],4.04 kcal/mol

row,Variant,folding stability dG
1,EEKRQVKQVAKEKLLEQSPNSKVQVRRVQKQGNTIRVELELRTNGKKENYTVCVERQGNTWTVKRITRT [E53C],3.34 kcal/mol
2,EEKRQVKQVAKEKLLEQSPNSKVQVRRVQKQGNTIRVELELRTNGKKENYTVNVERQGNTWTVKRITRT [E53N],2.78 kcal/mol
3,EEKRQVKQVAKEKLLEQSPNSKVQVRRVQKQGNTIRVELELRTNGKKENYTVSVERQGNTWTVKRITRT [E53S],3.33 kcal/mol
4,EEKRQVKQVAKEKLLEQSPNSKVQVRRVQKQGNTIRVELELRTNGKKENYTVRVERQGNTWTVKRITRT [E53R],2.69 kcal/mol
5,EEKRQVKQVAKEKLLEQSPNSKVQVRRVQKQGNTIRVELELRTNGKKENYTVYVERQGNTWTVKRITRT [E53Y],4.21 kcal/mol
6,EEKRQVKQVAKEKLLEQSPNSKVQVRRVQKQGNTIRVELELRTNGKKENYTVMVERQGNTWTVKRITRT [E53M],3.58 kcal/mol
7,EEKRQVKQVAKEKLLEQSPNSKVQVRRVQKQGNTIRVELELRTNGKKENYTVDVERQGNTWTVKRITRT [E53D],3.76 kcal/mol
8,EEKRQVKQVAKEKLLEQSPNSKVQVRRVQKQGNTIRVELELRTNGKKENYTVPVERQGNTWTVKRITRT [E53P],-0.812 kcal/mol
9,EEKRQVKQVAKEKLLEQSPNSKVQVRRVQKQGNTIRVELELRTNGKKENYTVGVERQGNTWTVKRITRT [E53G],2.14 kcal/mol
10,EEKRQVKQVAKEKLLEQSPNSKVQVRRVQKQGNTIRVELELRTNGKKENYTVWVERQGNTWTVKRITRT [E53W],4.23 kcal/mol
11,EEKRQVKQVAKEKLLEQSPNSKVQVRRVQKQGNTIRVELELRTNGKKENYTVQVERQGNTWTVKRITRT [E53Q],3.39 kcal/mol
12,EEKRQVKQVAKEKLLEQSPNSKVQVRRVQKQGNTIRVELELRTNGKKENYTVHVERQGNTWTVKRITRT [E53H],3.47 kcal/mol
13,EEKRQVKQVAKEKLLEQSPNSKVQVRRVQKQGNTIRVELELRTNGKKENYTVAVERQGNTWTVKRITRT [E53A],2.99 kcal/mol
14,EEKRQVKQVAKEKLLEQSPNSKVQVRRVQKQGNTIRVELELRTNGKKENYTVEVERAGNTWTVKRITRT [Q57A],3.81 kcal/mol
15,EEKRQVKQVAKEKLLEQSPNSKVQVRRVQKQGNTIRVELELRTNGKKENYTVEVERCGNTWTVKRITRT [Q57C],3.53 kcal/mol
16,EEKRQVKQVAKEKLLEQSPNSKVQVRRVQKQGNTIRVELELRTNGKKENYTVEVCRQGNTWTVKRITRT [E55C],3.34 kcal/mol
17,EEKRQVKQVAKEKLLEQSPNSKVQVRRVQKQGNTIRVELELRTNGKKENYTVEVIRQGNTWTVKRITRT [E55I],4.11 kcal/mol
18,EEKRQVKQVAKEKLLEQSPNSKVQVRRVQKQGNTIRVELELRTNGKKENYTVEVFRQGNTWTVKRITRT [E55F],3.92 kcal/mol
19,EEKRQVKQVAKEKLLEQSPNSKVQVRRVQKQGNTIRVELELRTNGKKENYTVEVSRQGNTWTVKRITRT [E55S],3.56 kcal/mol
20,EEKRQVKQVAKEKLLEQSPNSKVQVRRVQKQGNTIRVELELRTNGKKENYTVEVWRQGNTWTVKRITRT [E55W],3.92 kcal/mol
21,EEKRQVKQVAKEKLLEQSPNSKVQVRRVQKQGNTIRVELELRTNGKKENYTVEVVRQGNTWTVKRITRT [E55V],4.08 kcal/mol
22,EEKRQVKQVAKEKLLEQSPNSKVQVRRVQKQGNTIRVELELRTNGKKENYTVEVQRQGNTWTVKRITRT [E55Q],3.7 kcal/mol
23,EEKRQVKQVAKEKLLEQSPNSKVQVRRVQKQGNTIRVELELRTNGKKENYTVEVKRQGNTWTVKRITRT [E55K],3.19 kcal/mol
24,EEKRQVKQVAKEKLLEQSPNSKVQVRRVQKQGNTIRVELELRTNGKKENYTVEVARQGNTWTVKRITRT [E55A],3.45 kcal/mol
25,EEKRQVKQVAKEKLLEQSPNSKVQVRRVQKQGNTIRVELELRTNGKKENYTVEVMRQGNTWTVKRITRT [E55M],3.88 kcal/mol
26,EEKRQVKQVAKEKLLEQSPNSKVQVRRVQKQGNTIRVELELRTNGKKENYTVEVGRQGNTWTVKRITRT [E55G],3.19 kcal/mol

row,Variant,folding stability dG
1,EEKRQVKQVAKEKLLEQSPNSKVQVRRVQKQGNTIRVELELRTNGKKENYTVEVHRQGNTWTVKRITRT [E55H],3.65 kcal/mol
2,EEKRQVKQVAKEKLLEQSPNSKVQVRRVQKQGNTIRVELELRTNGKKENYTVEVTRQGNTWTVKRITRT [E55T],3.7 kcal/mol
3,EEKRQVKQVAKEKLLEQSPNSKVQVRRVQKQGNTIRVELELRTNGKKENYTVEVPRQGNTWTVKRITRT [E55P],-0.38 kcal/mol
4,EEKRQVKQVAKEKLLEQSPNSKVQVRRVQKQGNTIRVELELRTNGKKENYTVEVYRQGNTWTVKRITRT [E55Y],3.92 kcal/mol
5,EEKRQVKQVAKEKLLEQSPNSKVQVRRVQKQGNTIRVELELRTNGKKENYTVEVLRQGNTWTVKRITRT [E55L],3.54 kcal/mol
6,EEKRQVKQVAKEKLLEQSPNSKVQVRRVQKQGNTIRVELELRTNGKKENYTVEVNRQGNTWTVKRITRT [E55N],2.91 kcal/mol
7,EEKRQVKQVAKEKLLEQSPNSKVQVRRVQKQGNTIRVELELRTNGKKENYTVEVRRQGNTWTVKRITRT [E55R],3.1 kcal/mol
8,EEKRQVKQVAKEKLLEQSPNSKVQVRRVQKQGNTIRVELELRTNGKKENYTVEVDRQGNTWTVKRITRT [E55D],3.2 kcal/mol
9,EEKRQVKQVAKEKLLEQSPNSKVQVRRVQKQGNTIRVELELRTNGKKENYTVEHERQGNTWTVKRITRT [V54H],0.815 kcal/mol
10,EEKRQVKQVAKEKLLEQSPNSKVQVRRVQKQGNTIRVELELRTNGKKENYTVECERQGNTWTVKRITRT [V54C],3.36 kcal/mol
11,EEKRQVKQVAKEKLLEQSPNSKVQVRRVQKQGNTIRVELELRTNGKKENYTVEGERQGNTWTVKRITRT [V54G],1.44 kcal/mol
12,EEKRQVKQVAKEKLLEQSPNSKVQVRRVQKQGNTIRVELELRTNGKKENYTVEDERQGNTWTVKRITRT [V54D],-0.632 kcal/mol
13,EEKRQVKQVAKEKLLEQSPNSKVQVRRVQKQGNTIRVELELRTNGKKENYTVELERQGNTWTVKRITRT [V54L],3.94 kcal/mol
14,EEKRQVKQVAKEKLLEQSPNSKVQVRRVQKQGNTIRVELELRTNGKKENYTVERERQGNTWTVKRITRT [V54R],0.035 kcal/mol
15,EEKRQVKQVAKEKLLEQSPNSKVQVRRVQKQGNTIRVELELRTNGKKENYTVEEERQGNTWTVKRITRT [V54E],1.33 kcal/mol
16,EEKRQVKQVAKEKLLEQSPNSKVQVRRVQKQGNTIRVELELRTNGKKENYTVEKERQGNTWTVKRITRT [V54K],1.28 kcal/mol
17,EEKRQVKQVAKEKLLEQSPNSKVQVRRVQKQGNTIRVELELRTNGKKENYTVEIERQGNTWTVKRITRT [V54I],3.92 kcal/mol
18,EEKRQVKQVAKEKLLEQSPNSKVQVRRVQKQGNTIRVELELRTNGKKENYTVEAERQGNTWTVKRITRT [V54A],2.62 kcal/mol
19,EEKRQVKQVAKEKLLEQSPNSKVQVRRVQKQGNTIRVELELRTNGKKENYTVEQERQGNTWTVKRITRT [V54Q],0.909 kcal/mol
20,EEKRQVKQVAKEKLLEQSPNSKVQVRRVQKQGNTIRVELELRTNGKKENYTVEMERQGNTWTVKRITRT [V54M],3.85 kcal/mol
21,EEKRQVKQVAKEKLLEQSPNSKVQVRRVQKQGNTIRVELELRTNGKKENYTVEYERQGNTWTVKRITRT [V54Y],2.94 kcal/mol
22,EEKRQVKQVAKEKLLEQSPNSKVQVRRVQKQGNTIRVELELRTNGKKENYTVENERQGNTWTVKRITRT [V54N],0.723 kcal/mol
23,EEKRQVKQVAKEKLLEQSPNSKVQVRRVQKQGNTIRVELELRTNGKKENYTVEWERQGNTWTVKRITRT [V54W],2.75 kcal/mol
24,EEKRQVKQVAKEKLLEQSPNSKVQVRRVQKQGNTIRVELELRTNGKKENYTVEFERQGNTWTVKRITRT [V54F],4.06 kcal/mol
25,EEKRQVKQVAKEKLLEQSPNSKVQVRRVQKQGNTIRVELELRTNGKKENYTVETERQGNTWTVKRITRT [V54T],2.23 kcal/mol
26,EEKRQVKQVAKEKLLEQSPNSKVQVRRVQKQGNTIRVELELRTNGKKENYTVESERQGNTWTVKRITRT [V54S],1.63 kcal/mol
